Measurements taken from the supplement of paper PMC10724198.
± gives the standard deviation of the averaged measurements.

What follows are sequences tested on Saccharomyces cerevisiae (assay: protein stability index of tFT-peptide fusion (C-terminal peptide) (PSI (0-1 scale)); higher = more stable (slower turnover)). Settings: genetic background: wild type; temperature: 30 C.
Description: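 Multiplexed protein stability (MPS) profiling in S. cerevisiae. Random 12-aa peptides (tFT-X12 library) are fused to the C-terminus of a sfGFP-mCherry tandem fluorescent timer, after mCherry and a GGGS linker. Cells are FACS-sorted into 8 mCherry/sfGFP bins and deep-sequenced. The protein stability index (PSI) is the read-weighted bin average, scaled from 0 (unstable) to 1 (stable). Only peptides with >10 reads are reported; cells were grown at 30 °C in SC-His with glucose.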
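Also: PSI is a weighted mean of sequencing reads over stability bins, variants kept only with over 10 reads, mCherry proximal and sfGFP distal, peptide attached via GGGS linker.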

Sequence | protein stability index
FWGGRGGVGLAV | 0.601 ± 0.1
FWRPIPQSPLPQ | 0.7203 ± 0.002
FYGFHPLALPRP | 0.725 ± 0.035
FYKKKIRRGVNV | 0.661 ± 0.038
FYMCYFSCSRSL | 0.667 ± 0.0086
FYVCVIQNMYML | 0.579 ± 0.043
GAAIRVNRCGEG | 0.64136 ± 0.00011
GAAPRWSGDRRW | 0.71 ± 0.06
GAASHLERGQVP | 0.634 ± 0.089
GAATKRKYTINT | 0.665 ± 0.013
GACFLGGRLCGR | 0.686 ± 0.024
GACILARGVRRR | 0.656 ± 0.014
GACPAFPYSVGR | 0.595 ± 0.018
GAFLGSPWAAAS | 0.731 ± 0.04
GAFRLGSIVGVP | 0.735 ± 0.032
GAGAQRGCRSGG | 0.6878 ± 0.0034
GAGGVGVTSGGK | 0.668 ± 0.056
GAGVSELCGAGW | 0.713 ± 0.11
GAHVAVFRQRGR | 0.678 ± 0.083
GALYAGWRGPTC | 0.669 ± 0.031
GAPAWMLLYSAS | 0.723 ± 0.029
GAPKRLSISLSS | 0.681 ± 0.019
GAPPPPPARGDL | 0.764 ± 0.03
GARCHSKVTNAS | 0.681 ± 0.036
GARGCSATGPPG | 0.61 ± 0.02

Sequence | protein stability index
GARGWTVWVAGL | 0.632 ± 0.049
GARPRSGVRGGT | 0.723 ± 0.022
GAVGGGSAADPE | 0.667 ± 0.11
GAVGLARVSASN | 0.653 ± 0.028
GAVLELCRADGG | 0.651 ± 0.0082
GAVTWGGAGVGV | 0.694 ± 0.022
GAWCSTGENDTA | 0.677 ± 0.059
GCAVLGCLVLSA | 0.655 ± 0.088
GCEVRTFMNSSG | 0.697 ± 0.016
GCGDIFAEQLLL | 0.7227 ± 0.0041
GCGGRTAAWGGG | 0.655 ± 0.024
GCGRLWAGIGRR | 0.678 ± 0.023
GCGSGGLGGWRW | 0.746 ± 0.18
GCGVWRVLRVLR | 0.642 ± 0.027
GCPGGGRPGPRA | 0.7052 ± 0.0064
GCRGRCVMPVCG | 0.634 ± 0.051
GCRLFGLMFFDA | 0.682 ± 0.063
GCRPFLLKSQTF | 0.777 ± 0.11
GCRSFRNYKIGV | 0.641 ± 0.018
GCRSYRVFSGMI | 0.727 ± 0.12
GCVDRSSHNALC | 0.632 ± 0.037
GCVVSIICGGRA | 0.5639 ± 0.0013
GCWGRVLCGGSV | 0.695 ± 0.026
GDCYLCSACEWW | 0.753 ± 0.016
GDDCQYLVVPVR | 0.701 ± 0.052

Sequence | protein stability index
GDDRGTSKCCLT | 0.702 ± 0.068
GDIRLTGLSIVS | 0.638 ± 0.031
GDSGVWGPMGLW | 0.732 ± 0.033
GDSSSCSSYVYL | 0.651 ± 0.026
GDSVNSRALALS | 0.732 ± 0.072
GDWIYRMDRILI | 0.816 ± 0.035
GDWLVVRLVPSK | 0.728 ± 0.013
GDWSYIVGIKYY | 0.626 ± 0.0078
GEALVWGHGRLS | 0.741 ± 0.041
GEGALGLRENLQ | 0.665 ± 0.021
GEGEAVREMRGV | 0.645 ± 0.025
GEGLGGGRGRRW | 0.653 ± 0.026
GEGRGDKGHGWT | 0.706 ± 0.19
GELCGHSRALHG | 0.676 ± 0.071
GEPGQTSGREKT | 0.641 ± 0.014
GEPGRLNSSLFA | 0.678 ± 0.051
GERGTRAERAGA | 0.682 ± 0.032
GERLVGGWHIWN | 0.706 ± 0.015
GESPSTIRSVYS | 0.609 ± 0.038
GESWGGVGDVRR | 0.762 ± 0.028
GETVGCARLRLS | 0.566 ± 0.023
GEVGAVVGESFV | 0.622 ± 0.071
GEVVGRCGAWVC | 0.611 ± 0.033
GEVVRGGEWGLD | 0.686 ± 0.057
GFAAPSRPACLP | 0.696 ± 0.017

Sequence | protein stability index
GFACRSGSFWST | 0.848 ± 0.15
GFFRGMLEGINA | 0.726 ± 0.073
GFGEFVLSSGWG | 0.743 ± 0.018
GFGRGRRGLEEN | 0.695 ± 0.024
GFKDRCKDEKSL | 0.713 ± 0.11
GFLGCGSGCGWG | 0.744 ± 0.057
GFMRGVREKSSR | 0.701 ± 0.0073
GFPILSGLAVVR | 0.6578 ± 0.0055
GFPPSPPPPSPL | 0.741 ± 0.085
GFRGILFPVGRS | 0.736 ± 0.03
GFSCLALFCRVD | 0.587 ± 0.019
GFVCRRFRFGCI | 0.634 ± 0.037
GFYEVLRNMFVI | 0.589 ± 0.035
GGAAGGGRGGDG | 0.62 ± 0.069
GGAGLGSRSSAL | 0.743 ± 0.008
GGAGSVAGVWAV | 0.673 ± 0.069
GGASGGAGEGVG | 0.623 ± 0.063
GGCFGGVGVGSG | 0.7122 ± 0.0045
GGCGGVGGACVV | 0.738 ± 0.086
GGCGGVGGWGVA | 0.712 ± 0.066
GGCKSLYFEWGR | 0.734 ± 0.01
GGCRSVGWGREG | 0.676 ± 0.029
GGCTVLRASIFA | 0.597 ± 0.0063
GGCVGVLGGWGF | 0.6827 ± 0.0032
GGEGAAWAGGVG | 0.558 ± 0.028

Sequence | protein stability index
GGEGMTCPGGGA | 0.693 ± 0.039
GGFARGRDGWQL | 0.712 ± 0.0013
GGFDDIYVPIFV | 0.694 ± 0.012
GGFFPRISSLTV | 0.707 ± 0.054
GGFGEFTWAEAA | 0.768 ± 0.0087
GGFGVLGLGVVG | 0.6963 ± 0.0058
GGFPVGLVSGFC | 0.641 ± 0.032
GGFVVVGGVVGV | 0.72 ± 0.013
GGFWLGVGSRVG | 0.711 ± 0.06
GGGAEGGVRGGG | 0.664 ± 0.027
GGGAGGGSDRVV | 0.736 ± 0.0096
GGGAGRGGVVVR | 0.685 ± 0.023
GGGAGVTLSADG | 0.682 ± 0.059
GGGARCGWGGRM | 0.7 ± 0.011
GGGARREGAGRG | 0.6752 ± 0.0064
GGGCLRGFWCVW | 0.724 ± 0.046
GGGEKVMVVGHG | 0.709 ± 0.013
GGGERTAGVGQT | 0.733 ± 0.05
GGGGARRLAVGQ | 0.678 ± 0.015
GGGGETGRERKD | 0.655 ± 0.0061
GGGGGGGAGGSV | 0.673 ± 0.0081
GGGGGGSAVEGG | 0.674 ± 0.066
GGGGGGVECRVG | 0.671 ± 0.086
GGGGGGWSGACL | 0.716 ± 0.08
GGGGGVGVVRVG | 0.66 ± 0.032

Sequence | protein stability index
GGGGIREERVRE | 0.766 ± 0.19
GGGGPVWREPGT | 0.761 ± 0.01
GGGGQVWSCRLC | 0.678 ± 0.077
GGGGSGGAGGGG | 0.641 ± 0.0089
GGGGVVAGVCGG | 0.667 ± 0.098
GGGGVVGVVRVG | 0.658 ± 0.044
GGGGVVVVQGAG | 0.725 ± 0.058
GGGLGGGWGVWG | 0.657 ± 0.025
GGGLGGREPGGS | 0.742 ± 0.15
GGGLGWVWVKLG | 0.735 ± 0.073
GGGNRMRENGRE | 0.667 ± 0.026
GGGPAVEGLVGR | 0.66 ± 0.045
GGGPPARRRRGA | 0.652 ± 0.023
GGGRGGGFSGGV | 0.655 ± 0.014
GGGRGRAGENTR | 0.681 ± 0.049
GGGTVGCVVALA | 0.64 ± 0.017
GGGVHRAVRPGN | 0.653 ± 0.03
GGGVLTWLGENC | 0.702 ± 0.0082
GGGWDAVGVGGP | 0.7505 ± 0.0022
GGGWDVRGGCVG | 0.724 ± 0.0089
GGIGVGGGHMLL | 0.656 ± 0.024
GGLAWSMSGCVG | 0.691 ± 0.076
GGLGGAGAGVVC | 0.694 ± 0.11
GGLLLPCGAFGG | 0.673 ± 0.06
GGLVVGCGGMWV | 0.609 ± 0.0075

Sequence | protein stability index
GGMEGRVACSAQ | 0.74 ± 0.057
GGPGVKRPAMDP | 0.688 ± 0.0071
GGPNKRTGVWGR | 0.657 ± 0.0069
GGRGAGSDVGSL | 0.677 ± 0.04
GGRGGAVEERGG | 0.67 ± 0.0078
GGRGWGGEMGGR | 0.7156 ± 0.0052
GGRGYRIKRKSV | 0.806 ± 0.12
GGRHGSSRTGGY | 0.696 ± 0.018
GGRKKEDEEEEA | 0.651 ± 0.078
GGRPDQARPSRH | 0.741 ± 0.043
GGRRGCFARWAR | 0.697 ± 0.046
GGRRTLFCRFSY | 0.702 ± 0.017
GGRVCGGRVEGQ | 0.684 ± 0.007
GGRVFWGGSRSV | 0.651 ± 0.033
GGRWWGRGVFGG | 0.652 ± 0.028
GGSCGFGQGAGG | 0.685 ± 0.025
GGSCTRNLLRYW | 0.727 ± 0.011
GGSFVLGAALGV | 0.668 ± 0.039
GGSGGRDGLCVG | 0.738 ± 0.049
GGSLVRGAGVRS | 0.686 ± 0.031
GGSWGGGGVFVR | 0.637 ± 0.083
GGTAYFSNRGWA | 0.595 ± 0.036
GGTGGRRGVGHV | 0.655 ± 0.022
GGVEGGGCVGGG | 0.581 ± 0.014
GGVGEFGEGALA | 0.689 ± 0.044

Sequence | protein stability index
GGVGGFGGAGLG | 0.65 ± 0.023
GGVGGLGTLCGG | 0.661 ± 0.051
GGVGWGMVEGWR | 0.685 ± 0.057
GGVGWWWVRGMG | 0.741 ± 0.029
GGVKGTRFLLRG | 0.622 ± 0.051
GGVKVRGGMGPE | 0.684 ± 0.019
GGVRTLVSRHLP | 0.7121 ± 0.0043
GGVSRSRNTRWN | 0.677 ± 0.026
GGVVGVMWGGVR | 0.624 ± 0.029
GGWARGRQGCGG | 0.782 ± 0.011
GGWCGGSGRGAN | 0.63 ± 0.04
GGWGGEVVLWQA | 0.678 ± 0.073
GGWGSRGRVGDI | 0.744 ± 0.045
GGWGTGTSGQGR | 0.715 ± 0.027
GGWRGRAGENTR | 0.698 ± 0.036
GGWWGGGGAWSG | 0.689 ± 0.053
GHNTPRRVMSRC | 0.689 ± 0.037
GHVEGPGDAESS | 0.701 ± 0.071
GHVGFSKVSGKG | 0.664 ± 0.026
GICLLRLDTFNI | 0.667 ± 0.1
GIFSGTDRNLVC | 0.7075 ± 0.0069
